Measurements from patent US20110104713A1, “PRODUCTS AND PROCESSES FOR MODULATING PEPTIDE-PEPTIDE BINDING DOMAIN INTERACTIONS” (priority 2002, published 2011).

Legend:
[1] = molecular target: T1, Plk-1 PBD (residues 326-603) (Homo sapiens, UniProt P53350); test: Isothermal titration calorimetry of peptides with Plk-1 PBD; type: binding; conditions: ITC; no detectable binding for a Plk1 PBD concentration of at least 150 μM
T1 construct: sample cell containing 15 μM Plk-1 PBD (residues 326-603); GST (N, cleaved yes); made in house; host or cells: E. coli BL21
Description: For deletion mapping of the PBD, C-terminal fragments of Plk-1 were generated by PCR and cloned into the EcoRI and XhoI sites of pcDNA3.1 (Invitrogen). For production of recombinant PBD as a GST fusion in bacteria, the 326-603 fragment of Plk-1 was ligated into the EcoRI and XhoI sites of pGEX-4T (Pharmacia), transformed into BL21, and induced in late log-phase cells at 37° C. for 3.5 hours in the presence of 0.4 mM IPTG. For measurements of peptide binding affinity by ITC, GST-Plk-1 (326-603) was isolated from bacterial lysates using glutathione agarose, cleaved from GST using thrombin (10 U/mL), and purified by anion exchange chromatography (Q Sepharose HP, Pharmacia).
Peptides were synthesized by solid phase technique with two C-terminal lysines to enhance solubility, purified by reverse phase HPLC following deprotection, and confirmed by MALDI-TOF 9 Matrix-assisted laser desorption/ionisation-time of flight mass spectrometry. Some peptides contained an additional tyrosine residue to facilitate concentration determination by optical absorbance. calorimetry measurements were performed using a VP-ITC microcalorimeter (MicroCal Inc., Studio City, Calif.). Experiments involved 10 μL injections of peptide solutions (150 μM-180 μM) into a sample cell containing 15 μM Plk-1 PBD (residues 326-603) in 50 mM Tris/HCl (pH 8.1), 200 mM NaCl, 2 mM TCEP. Thirty injections were performed with a spacing of 240 s and a reference power of 25 μCal/s. Binding isotherms were plotted and analyzed using Origin Software (MicroCal Inc. Studio City, Calif.).
Peptides were synthesized by solid phase technique with two C-terminal lysines to enhance solubility. Some peptides contained an additional tyrosine residue to facilitate concentration determination by optical absorbance. Isothermal titration calorimetry was performed using a VP-ITC microcalorimeter (MicroCal Inc. Studio City, Calif.) by titration of 15-40 μM solutions of PBD proteins with 30×10 μl injections of […] peptide in a starting volume of 1.4-2.0 ml. Binding isotherms were plotted and analyzed using Origin Software (MicroCal Inc. Studio City, Calif.). Binding of in vitro translated Plk1 PBD (wild type and mutants) to bead-immobilized pTP and TP peptide libraries was performed as described previously (Elia et al., Science 299:1228-1231, 2003). pTP and TP indicate the peptide libraries biotin-Z-Gly-Z-Gly-Gly-Ala-X-X-B-X-pThr-Pro-X-X-X-X-Ala-Lys-Lys-Lys SEQ ID NO: 30 biotin-Z-Gly-Z-Gly-Gly-Ala-X-X-B-X-Thr-Pro-X-X-X-X-Ala-Lys-Lys-Lys SEQ ID NO: 31, respectively, where pThr is phosphothreonine, Z is aminohexanoic acid, X denotes all amino acids except Cys, and B is a biased mixture of the amino acids P, L, I, V, F, M, W.

[2] = tested on: centrosomal localization of GST-Plk-1 PBD in U2OS cells; test: Centrosomal localization of GST-Plk-1 PBD in permeabilized U2OS cells with peptide competition; type: cell-based, human; conditions: 250 μM peptide; nocodazole-arrested, Streptolysin-O permeabilized U2OS cells
Description: U2OS cells were cultured in 8-well chamber slides and arrested at G2/M by treatment with nocodazole (50 ng/mL) for 14 hours. After rinsing with PBS, cells were incubated with 4 μM GST-Plk-1 PBD (residues 326-603) and Streptolysin-O (1 U/ml) in permeabilization buffer (25 mM HEPES (pH 7.9), 100 mM KCl, 3 mM NaCl, 200 mM sucrose, 20 mM NaF, 1 mM NaOVO4) for 20 minutes at 37° C. Cells were fixed in 3% paraformaldehyde/2% sucrose for 10 minutes at room temperature and extracted with a 0.5% Triton X-100 solution containing 20 mM Tris-HCl (pH 7.4), 50 mM NaCl, 300 mM sucrose, and 3 mM MgCl2 for 10 minutes at RT. […] Cells were examined using a Nikon Eclipse E600 fluorescence microscope equipped with a SPOT RTcamera and software (Diagnostic Instruments, Livingston, Scotland). Images were analyzed using NIH Image. […]
The normalized intensity of centrosome-specific Alexa Fluor 488 staining (N.I.AF488) or Texas Red staining (N.I.TR) above background was defined as ([Icentrosome−1cell]/Icell) where Icentrosome indicates the fluorescence intensity of either Alexa-Fluor 488 or Texas Red averaged over the centrosome and Icell indicates the overall fluorescence intensity averaged over the entire cell. The relative GST-PBD/γ-tubulin specific staining was then calculated as N.I.AF488/NITR.

T1 sequence (P53350 326-603): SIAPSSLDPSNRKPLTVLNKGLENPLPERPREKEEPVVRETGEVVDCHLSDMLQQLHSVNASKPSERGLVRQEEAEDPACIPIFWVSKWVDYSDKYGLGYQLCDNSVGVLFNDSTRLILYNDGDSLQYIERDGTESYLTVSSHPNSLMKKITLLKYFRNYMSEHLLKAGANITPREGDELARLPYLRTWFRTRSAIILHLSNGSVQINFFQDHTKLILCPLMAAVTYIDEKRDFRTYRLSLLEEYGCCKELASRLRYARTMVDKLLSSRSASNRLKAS

For “MAGPMQ-S-T-P-LNGAKK (MAGPMQSTPLNGAKK) [PoloBoxtide-8T]”, the “peptide binding to Plk-1 PBD by ITC (in words)” value [1] was “complete loss of binding” and the “effect of peptide on centrosomal localization of Plk-1 PBD” value [2] was “unaffected”.
